By Ki is commonly meant a dissociation constant, usually derived from enzyme kinetics or from competition with a known ligand. The low end stands for a stronger hold on the target, the high end for a looser hold on the target.

This is an account of results in patent US20250312499A1, “KISSPEPTIN RECEPTOR (KISS1R) TARGETED THERAPEUTICS AND USES THEREOF” (priority 2024, published 2025).

For this assay, the target named is human kisspeptin receptor (KISS1R) (human), Q969F8. In words: radioligand competition, hKISS1R membranes; legend: A is <10 nM.
Sequence of human kisspeptin receptor (KISS1R) (human), Q969F8 (Q969F8 whole entry): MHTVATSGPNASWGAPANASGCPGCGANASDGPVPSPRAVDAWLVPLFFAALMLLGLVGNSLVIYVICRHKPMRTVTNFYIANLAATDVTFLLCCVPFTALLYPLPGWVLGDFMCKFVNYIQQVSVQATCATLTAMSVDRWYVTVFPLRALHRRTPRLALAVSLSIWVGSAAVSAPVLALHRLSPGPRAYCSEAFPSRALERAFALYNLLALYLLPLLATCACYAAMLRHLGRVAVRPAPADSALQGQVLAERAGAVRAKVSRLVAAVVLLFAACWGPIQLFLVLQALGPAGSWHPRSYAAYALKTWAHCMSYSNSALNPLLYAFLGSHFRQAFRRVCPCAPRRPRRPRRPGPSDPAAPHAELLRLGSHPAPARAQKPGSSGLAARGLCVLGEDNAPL

Numbered stars: 1 amine (or outer) side, 2 acyl side, 3 side chain; on linkers, the order of the positions; unused ones are H or OH. Square brackets hold non-standard residues; d marks the D form. * marks the point of attachment. X2 = 4‑amino‑1‑((3-fluoro-4-methylbenzyl)glycyl)piperidine‑4‑carboxylic acid, Cc1ccc(CN(CC(=O)N2CCC(N[*:1])(C(=O)[*:2])CC2)[*:3])cc1F; Apc(4-OMe) = 4-aminopiperidine-4-carboxylic acid residue N1-acylated by a methoxy-bearing benzylglycyl; DOTA = O=C(O)CN1CCN(CC(=O)O)CCN(CC(=O)*)CCN(CC(=O)O)CC1; Api(1-amidino) = N=C(N)N1CCC(N)(C(=O)O)CC1; Phe(4-CN) = N#Cc1ccc(C[C@H](N)C(=O)O)cc1; HO(CH2CH2O)2CH2CH2CO = O=C(CCOCCOCCO)*; 2Nal = N[C@@H](Cc1ccc2ccccc2c1)C(=O)O; 4Pal = N[C@@H](Cc1ccncc1)C(=O)O; 4Amb = NCc1ccc(C(=O)O)cc1; APM = not defined here; Ahx = NCCCCCC(=O)O; azaGly = NNC(=O)O

B1: Compound 241 (peptide)
peptide: {DOTA-4Amb}-ENTF[azaGly]L[X2][Phe(4-CN)]-NH2
SMILES: Cc1ccc(CNCC(=O)N2CCC(NC(=O)[C@H](CC(C)C)NC(=O)NNC(=O)[C@H](Cc3ccccc3)NC(=O)[C@@H](NC(=O)[C@H](CC(N)=O)NC(=O)[C@H](CCC(=O)O)NC(=O)c3ccc(CNC(=O)CN4CCN(CC(=O)O)CCN(CC(=O)O)CCN(CC(=O)O)CC4)cc3)[C@@H](C)O)(C(=O)N[C@@H](Cc3ccc(C#N)cc3)C(N)=O)CC2)cc1F
As to B1, the Ki was less than 10 nM.

B2: Compound 11 (peptide)
peptide: {DOTA-Ahx}-FGL[X2]Y-NH2
SMILES: Cc1ccc(CNCC(=O)N2CCC(NC(=O)[C@H](CC(C)C)NC(=O)CNC(=O)[C@H](Cc3ccccc3)NC(=O)CCCCCNC(=O)CN3CCN(CC(=O)O)CCN(CC(=O)O)CCN(CC(=O)O)CC3)(C(=O)N[C@@H](Cc3ccc(O)cc3)C(N)=O)CC2)cc1F
With B2, the Ki is less than 10 nM. {DOTA-APM}-TF[azaGly]L[X2]Y-NH2 (reading uncertain) [Compound 250] had a Ki of less than 10 nM. As for {DOTA}-ENTF[azaGly]L[Apc(4-OMe)]F-NH2 [Compound 237], the figure is less than 10 nM.

B3: Compound 238 (peptide)
peptide: {DOTA-Ahx}-ENTF[azaGly]L[X2]W-NH2
SMILES: Cc1ccc(CNCC(=O)N2CCC(NC(=O)[C@H](CC(C)C)NC(=O)NNC(=O)[C@H](Cc3ccccc3)NC(=O)[C@@H](NC(=O)[C@H](CC(N)=O)NC(=O)[C@H](CCC(=O)O)NC(=O)CCCCCNC(=O)CN3CCN(CC(=O)O)CCN(CC(=O)O)CCN(CC(=O)O)CC3)[C@@H](C)O)(C(=O)N[C@@H](Cc3c[nH]c4ccccc34)C(N)=O)CC2)cc1F
Molecule B3 yielded a Ki of less than 10 nM. As for {DOTA-Ahx}-NTF[azaGly]L[Apc(4-OMe)]F-NH2 [Compound 235], the figure is less than 10 nM; as for {DOTA-Ahx}-ENTF[azaGly]L[Apc(4-OMe)]F-NH2 [Compound 236], less than 10 nM.

For the molecule {DOTA-APM}-F[azaGly]L[X2]Y-NH2 (reading uncertain) [Compound 247], the Ki is less than 10 nM. Take {1‑hydroxy‑3,6,9,12,15,18,21,24‑octaoxaheptacosan‑27‑oyl}-K(DOTA)NTF[azaGly]L[X2][4Pal]-NH2 [Compound 256]: the Ki is less than 10 nM. As to {3‑(2-(2-methoxyethoxy)ethoxy)propanoyl}-K(DOTA)NTF[azaGly]L[Api(1-amidino)]W-NH2 [Compound 264], the inhibitory constant (Ki) was less than 10 nM. As for {DOTA-APM}-F[azaGly]L[X2][Phe(4-CN)]-NH2 (reading uncertain) [Compound 244], the figure is less than 10 nM.

B4: Compound 10 (peptide)
peptide: {DOTA-Ahx}-FGL[X2]W-NH2
SMILES: Cc1ccc(CNCC(=O)N2CCC(NC(=O)[C@H](CC(C)C)NC(=O)CNC(=O)[C@H](Cc3ccccc3)NC(=O)CCCCCNC(=O)CN3CCN(CC(=O)O)CCN(CC(=O)O)CCN(CC(=O)O)CC3)(C(=O)N[C@@H](Cc3c[nH]c4ccccc34)C(N)=O)CC2)cc1F
B4 had a Ki of less than 10 nM. {DOTA-APM}-NTF[azaGly]L[X2]Y-NH2 (reading uncertain) [Compound 249] displayed a Ki of less than 10 nM. The molecule {DOTA-4Amb}-NTFGL[X2][Phe(4-CN)]-NH2 (not fully specified) [Compound 240] gave a Ki of less than 10 nM.

B5: Compound 254 (peptide)
peptide: {HO(CH2CH2O)2CH2CH2CO}-[dK](DOTA)NTF[azaGly]L[X2][4Pal]-NH2
SMILES: Cc1ccc(CNCC(=O)N2CCC(NC(=O)[C@H](CC(C)C)NC(=O)NNC(=O)[C@H](Cc3ccccc3)NC(=O)[C@@H](NC(=O)[C@H](CC(N)=O)NC(=O)[C@@H](CCCCNC(=O)CN3CCN(CC(=O)O)CCN(CC(=O)O)CCN(CC(=O)O)CC3)NC(=O)CCOCCOCCO)[C@@H](C)O)(C(=O)N[C@@H](Cc3ccncc3)C(N)=O)CC2)cc1F
B5 gave a Ki of less than 10 nM. For {3‑(2-(2-methoxyethoxy)ethoxy)propanoyl}-K(DOTA)NTF[azaGly]L[X2][4Pal]-NH2 [Compound 255], the Ki was less than 10 nM.

B6: Compound 266 (peptide)
peptide: {DOTA}-[dY][2Nal]NTF[azaGly]L[Api(1-amidino)]W-NH2
SMILES: CC(C)C[C@H](NC(=O)NNC(=O)[C@H](Cc1ccccc1)NC(=O)[C@@H](NC(=O)[C@H](CC(N)=O)NC(=O)[C@H](Cc1ccc2ccccc2c1)NC(=O)[C@@H](Cc1ccc(O)cc1)NC(=O)CN1CCN(CC(=O)O)CCN(CC(=O)O)CCN(CC(=O)O)CC1)[C@@H](C)O)C(=O)NC1(C(=O)N[C@@H](Cc2c[nH]c3ccccc23)C(N)=O)CCN(C(=N)N)CC1
In turn, B6 gave a Ki of less than 10 nM.

B7: Compound 242 (peptide)
peptide: {DOTA-4Amb}-[dE]NTF[azaGly]L[X2][Phe(4-CN)]-NH2
SMILES: Cc1ccc(CNCC(=O)N2CCC(NC(=O)[C@H](CC(C)C)NC(=O)NNC(=O)[C@H](Cc3ccccc3)NC(=O)[C@@H](NC(=O)[C@H](CC(N)=O)NC(=O)[C@@H](CCC(=O)O)NC(=O)c3ccc(CNC(=O)CN4CCN(CC(=O)O)CCN(CC(=O)O)CCN(CC(=O)O)CC4)cc3)[C@@H](C)O)(C(=O)N[C@@H](Cc3ccc(C#N)cc3)C(N)=O)CC2)cc1F
For the molecule B7, the Ki is less than 10 nM.

B8: Compound 253 (peptide)
peptide: {HO(CH2CH2O)2CH2CH2CO}-K(DOTA)NTF[azaGly]L[X2][4Pal]-NH2
SMILES: Cc1ccc(CNCC(=O)N2CCC(NC(=O)[C@H](CC(C)C)NC(=O)NNC(=O)[C@H](Cc3ccccc3)NC(=O)[C@@H](NC(=O)[C@H](CC(N)=O)NC(=O)[C@H](CCCCNC(=O)CN3CCN(CC(=O)O)CCN(CC(=O)O)CCN(CC(=O)O)CC3)NC(=O)CCOCCOCCO)[C@@H](C)O)(C(=O)N[C@@H](Cc3ccncc3)C(N)=O)CC2)cc1F
In turn, B8 registered an inhibitory constant (Ki) of less than 10 nM. Under {DOTA-APM}-F[azaGly]L[X2]F-NH2 (reading uncertain) [Compound 245] stands less than 10 nM.
